Experimental data reported in article PMC3871058.

How the values were obtained:
Protein A [1] = target: Protein A (UniProt P38507); assay: SPR; Protein A (0.25 mg/mL, 90 min) adsorbed to the gold surface of a Topas chip, blocked with 1 mg/mL BSA; 500 uL of 0.565 mg/mL IgG1 added for 90 min, rinsed with 10 mM Tris-HCl; plateaus in 10 mM Tris-HCl compared; measured together with EIS in one PDMS flow cell
Protein A [2] = target: Protein A (UniProt P38507); assay: electrochemical impedance spectroscopy (EIS); Protein A (0.25 mg/mL, 90 min) adsorbed to the gold surface of a Topas chip, blocked with 1 mg/mL BSA; 500 uL of 0.565 mg/mL IgG1 added for 90 min, rinsed with 10 mM Tris-HCl; impedance at 251 Hz, AC amplitude 10 mV; measured together with SPR in one PDMS flow cell

immunoglobulin-G (IgG1) (antibody) showed a local minimum (RU) after IgG1 and the last rinse (Protein A [1]) of 460 RU, a minimum shift, normalised to the initial value (Protein A [1]) of 35.3% and an impedance at 251 Hz after IgG1 and the last rinse (Protein A [2]) of 51 kΩ. The increase in impedance, normalised to the initial value (Protein A [2]) was 18.6%.
